The values that follow come from patent US20200369766A1 (LEIDOS, published 2020).

Experiment [1] has as its target T1, human LAG3 expressed on Jurkat T cell line (human, UniProt P18627 23-525).
T1 sequence (looked up): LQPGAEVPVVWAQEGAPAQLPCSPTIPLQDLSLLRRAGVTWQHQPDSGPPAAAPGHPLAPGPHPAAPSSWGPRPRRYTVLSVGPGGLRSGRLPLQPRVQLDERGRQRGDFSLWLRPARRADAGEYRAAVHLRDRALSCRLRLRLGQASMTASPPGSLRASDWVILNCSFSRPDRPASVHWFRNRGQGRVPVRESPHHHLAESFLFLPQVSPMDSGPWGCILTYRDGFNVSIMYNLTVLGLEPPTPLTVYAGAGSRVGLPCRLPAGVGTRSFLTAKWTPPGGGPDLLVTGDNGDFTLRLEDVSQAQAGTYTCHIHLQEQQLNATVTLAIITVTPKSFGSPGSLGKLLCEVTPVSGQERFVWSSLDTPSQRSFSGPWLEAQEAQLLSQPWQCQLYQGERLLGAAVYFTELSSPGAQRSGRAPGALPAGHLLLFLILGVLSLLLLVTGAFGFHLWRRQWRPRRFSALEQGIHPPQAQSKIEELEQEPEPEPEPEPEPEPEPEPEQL
In words: cell-based or functional assay.

The target in experiment [2] is Tag1-LAG3. In words: HTRF LAG3/MHC-II; peptide log M -4.
Experiment [3] has as its target Tag1-LAG3. In words: HTRF LAG3/MHC-II; peptide log M -7.0103.
Experiment [4] addresses Tag1-LAG3. In words: HTRF LAG3/MHC-II; peptide log M -10.0206.
The target in experiment [5] is Tag1-LAG3. In words: HTRF LAG3/MHC-II; peptide log M -10.6227.
In experiment [6] the target is Tag1-LAG3. In words: HTRF LAG3/MHC-II; peptide log M -4.60206.
Experiment [7] addresses Tag1-LAG3. In words: HTRF LAG3/MHC-II; peptide log M -5.20412.
Experiment [8] concerns the target Tag1-LAG3. In words: HTRF LAG3/MHC-II; peptide log M -5.80618.
For experiment [9], the target named is Tag1-LAG3. In words: HTRF LAG3/MHC-II; peptide log M -6.40824.
Experiment [10] concerns the target Tag1-LAG3. In words: HTRF LAG3/MHC-II; peptide log M -7.61236.
Experiment [11] has as its target Tag1-LAG3. In words: HTRF LAG3/MHC-II; peptide log M -8.21442.
Experiment [12] addresses Tag1-LAG3. In words: HTRF LAG3/MHC-II; peptide log M -8.81648.
Experiment [13] concerns the target Tag1-LAG3. In words: HTRF LAG3/MHC-II; peptide log M -9.41854.

Values joined by “and” are separate entries in the source; they are usually repeats but may differ in a detail not shown here. Identical values can stand only once.

B1: LAG3-11 (peptide)
peptide: SAPWEPLHWPEDWWQGTGEW
On to B1, for which, in experiment [1], the “fold inhibition (fold increase in luciferase activity, RLUs at 100 µM against 0.64 µM)” value was about 2.8 fold.

B2: LAG3-56 (peptide)
peptide: HIQNWSYWLNQDMMNQQVWKS
For B2, the “fold inhibition (fold increase in luciferase activity, RLUs at 100 µM against 0.64 µM)” value in [1] is about 2.2 fold.

B3: ovalbumin (OVA) peptide (peptide)
peptide: ISQAVHAAHAEINEAGR
Regarding B3, the HTRF ratio in [2] is 8490 and 8910 and 7150; in experiment [3], 8970 and 8380 and 8650; in [4] it was 8990 and 8460 and 8360; in [5], 9090 and 8890 and 8630; in experiment [6], 8470 and 8680 and 8450; in [7], 8620 and 8580 and 9020. For the same molecule, the HTRF ratio is 8830 and 9370 and 9180 in experiment [8]; 8630 and 9280 and 9190 in experiment [9]; 8780 and 8570 and 9020 in experiment [10]; 8620 and 8990 and 9220 in [11]; 8720 and 8640 and 8680 in [12]; 8400 and 8790 and 8620 in experiment [13].
